Reference: paper PMC7026398, “Structural and functional insight into the effect of AFF4 dimerization on activation of HIV-1 proviral transcription” (Cell Discovery, 2020)

B1: human AFF4-THD (902-1163), wild type [human] / itself (parent)
chain: RRTKLVFDDRNYSADHYLQEAKKLKHNADALSDRFEKAVYYLDAVVSFIECGNALEKNAQESKSPFPMYSETVDLIKYTMKLKNYLAPDATAADKRLTVLCLRCESLLYLRLFKLKKENALKYSKTLTEHLKNSYNNSQAPSPGLGSKAVGMPSPVSPKLSPGNSGNYSSGASSASASGSSVTIPQKIHQMAASYVQVTSNFLYATEIWDQAEQLSKEQKEFFAELDKVMGPLIFNASIMTDLVRYTRQGLHWLRQDAKLIS
B2: AFF1-THD (953-1210), wild type [not stated] / itself (parent)
chain: GKPQVKFDKQQADLHMREAKKMKQKAELMTDRVGKAFKYLEAVLSFIECGIATESESQSSKSAYSVYSETVDLIKFIMSLKSFSDATAPTQEKIFAVLCMRCQSILNMAMFRCKKDIAIKYSRTLNKHFESSSKVAQAPSPCIASTGTPSPLSPMPSPASSVGSQSSAGSVGSSGVAATISTPVTIQNMTSSYVTITSHVLTAFDLWEQAEALTRKNKEFFARLSTNVCTLALNSSLVDLVHYTRQGFQQLQELTKTP

Variants of: B1
Assay: analytical gel filtration
Settings: with itself; read off a plot

screen value [mL]	Variant
10.9	chain 1 Y195A
10.6	chain 1 F113A
10.8	chain 1 F113A Y195A

Variants of: B1
Assay: sedimentation velocity analytical ultracentrifugation
Settings: with itself

screen value [kD]	Variant
28.9	chain 1 F113A Y195A

Same assay, conditions: with itself; read off a plot

screen value [S]	Variant
2.2	chain 1 F113A Y195A

Variants of: B2
Assay: analytical gel filtration
Settings: with itself; read off a plot

screen value [mL]	Variant
9.5	chain 1 Y193A
10.5	chain 1 F111A Y193A V194A V200A
9.4	chain 1 F111A

Variants of: B2
Assay: sedimentation velocity analytical ultracentrifugation
Settings: with itself

screen value [kD]	Variant
27.2	chain 1 F111A Y193A V194A V200A

Same assay, conditions: with itself; read off a plot

screen value [S]	Variant
2.2	chain 1 F111A Y193A V194A V200A
